Measured values from US20120041175A1 (ROCKEFELLER UNIVERISTY, published 2012).

B1: Beclin 1-EGFP (fusion of mouse Beclin 1 and EGFP at the C-terminus) (other)
chain: MEGSKASSSTMQVSFVCQRCSQPLKLDTSFKILDRVTIQELTAPLLTTAQAKPGETQEEEANSGEEPFIETRQDGVSRRFIPPARMMSTESANSFTLIGEASDGGTMENLSRRLKVTGDLFDIMSGQTDVDHPLCEECTDTLLDQLDTQLNVTENECQNYKRCLEILEQMNEDDSEQLQRELKELALEEERLIQELEDVEKNRKVVAENLEKVQAEAERLDQEEAQYQREYSEFKRQQLELDDELKSVENQVRYAQIQLDKLKKTNVFNATFHIWHSGQFGTINNFRLGRLPSVPVEWNEINAAWGQTVLLLHALANKMGLKFQRYRLVPYGNHSYLESLTDKSKELPLYCSGGLRFFWDNKFDHAMVAFLDCVQQFKEEVEKGETRFCLPYRMDVEKGKIEDTGGSGGSYSIKTQFNSEEQWTKALKFMLTNLKWGLAWVSSQFYNK
notes: Expressed from a BAC transgene in beclin 1-/-; also called Beclin 1-GFP; not shown: EGFP inserted at the C-terminus in place of the stop codon

What was measured:
[1] = target: B1; test: anti-GFP affinity isolation of Beclin 1-EGFP from mouse tissues, mass spectrometry
Procedure: (§1) Rubicon contains an N-terminal RUN (for RPIP8, UNC-14 and NESCA) domain, a C-terminal cysteine-rich domain, and a CCD domain in the central of the protein sequence. (D and E) HEK 293T cells were transfected with either N-terminal FLAG-tagged […] or C-terminal EGFP-tagged (E) ATG14L or Rubicon. Immunoprecipitation was performed with anti-FLAG (D) or anti-GFP antibody (E). The endogenous Beclin 1 co-immunoprecipitated were detected by Western blot analysis using anti-Beclin 1 antibody. WCL represents whole cell lysate, and IP represents immunoprecipitated.
(§2) Affinity purification of Beclin 1 interacting proteins and mass spectrometric identification of these proteins were carried out as described in Wang et al. (2006), with slight modification. In brief, tissue extracts were obtained from both beclin 1^{+/-} and beclin 1^{-/-}; beclin 1-GFP/+ mice at 4 month of age by homogenizing 2 brains or 1 liver with a motor-driven homogenizer (speed 2.5, 12 strokes) in 4 ml buffer containing 0.32 M sucrose, 1 mM NaHCO₃, 20 mM HEPEs/pH 7.4, 1 mM MgCl₂, 0.25 mM CaCl₂, EDTA-free protease inhibitor cocktail, 200 μg/mL PMSF, pepstatin 4 μg/mL, and DNase I. The tissue extracts were centrifuged at 1,400 g for 10 minutes and the pellets were homogenized again in 4 ml buffer for 8 strokes and centrifuged again. Supernatants from the two homogenization steps were pooled, centrifuged at 750 g for 10 minutes. […]

[2] = target: nPIST (endogenous, mouse tissue) (mouse, UniProt Q8BH60 2-463); test: as above
Procedure: as §1, §2

binding result [1]	binding result [2]	Binder
no binding	–	Bif1 (endogenous, mouse tissue) (other, UniProt Q9JK48 1-365, looked up) MNIMDFNVKKLAADAGTFLSRAVQFTEEKLGQAEKTELDAHLENLLSKAECTKIWTEKIMKQTEVLLQPNPNARIEEFVYEKLDRKAPSRINNPELLGQYMIDAGTEFGPGTAYGNALIKCGETQKRIGTADRELIQTSALNFLTPLRNFIEGDYKTIAKERKLLQNKRLDLDAAKTRLKKAKAAETKSSSEQELRITQSEFDRQAEITRLLLEGISSTHAHHLRCLNDFVEAQMTYYAQCYQYMLDLQKQLGSFPSNYLSNNNQTSGTPVPYALSNAIGPSAQASTGSLVITCPSNLNDLKESSNNRKARVLYDYDAANSTELSLLADEVITVFSVVGMDSDWLMGERGNQKGKVPITYLELLN
–	no binding	B1
